Test results from patent publication US20190185581A1 (University of California, published 2019).

How the values were obtained:
[1] = target: T1, catalytic domain of MMP-14 (cdMMP-14) (human, UniProt P50281 114-287, limits assumed, biotinylated (Sulfo-NHS-LC-Biotin) where immobilised via streptavidin); assay: ELISA, Fab titrated on immobilised biotin-cdMMP-14, anti-Fab-HRP
T1 construct: also called matrix metalloproteinase-14 catalytic domain; wild-type MMP-14

[2] = target: T1, catalytic domain of MMP-14 (cdMMP-14); assay: cell-based or functional assay
[3] = target: T1, catalytic domain of MMP-14 (cdMMP-14); assay: ELISA, Fab titrated on immobilised MMP-14 catalytic domain, anti-Fab-HRP
Description: Bound Fabs were detected using the anti-Fab-HRP conjugate. The half-maximal effective concentration (EC₅₀) was calculated from a four-parametric logistic curve-fitting analysis.

Row | Binder | EC50 [1] [nM] | Inhibition potency (FRET IC50) [2] [nM] | EC50 [3] [nM]
1 | Fab R3C8 (Fab, V domains shown) VH: EVQLVESGGGLVQPGGSLRLSCAASGFNFSSSSIHWVRQAPGKGLEWVASIYPSYSYTYYADSVKGRFTISADTSKNTAYLQMNSLRAEDTAVYYCARHCLLRSRRCEMSTKTRELNVYRYAMDYWGQGTLVTVSS VL: DIQMTQSPSSLSASVGDRVTITCRASQSVSSAVAWYQQKPGKAPKLLIYSASSLYSGVPSRFSGSRSGTDFTLTISSLQPEDFATYYCQQWPVGSSYPITFGQGTKVEIKR | 1300 | 5400 | 
2 | Fab R2C4 (Fab, V domains shown) VH: EVQLVESGGGLVQPGGSLRLSCAASGFNLSYYYMHWVRQAPGKGLEWVAYISSYSGYTYYADSVKGRFTISADTSKNTAYLQMNSLRAEDTAVYYCARGWRVYADRGHVRGYFRVWYGMDYWGQGTLVTVSS VL: DIQMTQSPSSLSASVGDRVTITCRASQSVSSAVAWYQQKPGKAPKLLIYSASSLYSGVPSRFSGSRSGTDFTLTISSLQPEDFATYYCQQGAGLITFGQGTKVEIKR | 10000 | 1500 | 
3 | Fab R2C16 (Fab, V domains shown) VH: EVQLVESGGGLVQPGGSLRLSCAASGFNIYSYSMHWVRQAPGKGLEWVASISSYYGYTYYADSVKGRFTISADTSKNTAYLQMNSLRAEDTAVYYCARFKNADFAAGGQWSKMLIARMYAMDYWGQGTLVTVSS VL: DIQMTQSPSSLSASVGDRVTITCRASQSVSSAVAWYQQKPGKAPKLLIYSASSLYSGVPSRFSGSRSGTDFTLTISSLQPEDFATYYCQQYYSLITFGQGTKVEIKR | 1800 | 5500 | 
4 | Fab R2C6 (Fab, V domains shown) VH: EVQLVESGGGLVQPGGSLRLSCAASGFNIYYSSMHWVRQAPGKGLEWVAYISPYYGYTSYADSVKGRFTISADTSKNTAYLQMNSLRAEDTAVYYCARKDLLKTNRLTTRYKKSVSVGYGMDYWGQGTLVTVSS VL: DIQMTQSPSSLSASVGDRVTITCRASQSVSSAVAWYQQKPGKAPKLLIYSASSLYSGVPSRFSGSRSGTDFTLTISSLQPEDFATYYCQQYVYPPFTFGQGTKVEIKR | 2400 | 2400 | 
5 | Fab 33F5 (Fab, V domains shown, also called R2C20; not shown: His tag at the C-terminus of the heavy chain) VH: EVQLVESGGGLVQPGGSLRLSCAASGFNLYYSYMHWVRQAPGKGLEWVAYISPSSSSTYYADSVKGRFTISADTSKNTAYLQMNSLRAEDTAVYYCARNFRVESAGRPGKTVLRKDGKYAMDYWGQGTLVTVSS VL: DIQMTQSPSSLSASVGDRVTITCRASQSVSSAVAWYQQKPGKAPKLLIYSASSLYSGVPSRFSGSRSGTDFTLTISSLQPEDFATYYCQQSSVGLFTFGQGTKVEIKR | 1600 |  | 1600
6 | Fab R3C10 (Fab, V domains shown) VH: EVQLVESGGGLVQPGGSLRLSCAASGFNIYYSSMHWVRQAPGKGLEWVASISPYYGYTYYADSVKGRFTISADTSKNTAYLQMNSLRAEDTAVYYCARGSLRRDFNLVVRSSWDIRSNYVMDYWGQGTLVTVSS VL: DIQMTQSPSSLSASVGDRVTITCRASQSVSSAVAWYQQKPGKAPKLLIYSASSLYSGVPSRFSGSRSGTDFTLTISSLQPEDFATYYCQQSWPYPITFGQGTKVEIKR | 970 | 1000 | 
7 | Fab R2C8 (Fab, V domains shown) VH: EVQLVESGGGLVQPGGSLRLSCAASGFNISSSSIHWVRQAPGKGLEWVASIYPYYGSTSYADSVKGRFTISADTSKNTAYLQMNSLRAEDTAVYYCARPGRHLQTTFKGYQFKYSRYIYAMDYWGQGTLVTVSS VL: DIQMTQSPSSLSASVGDRVTITCRASQSVSSAVAWYQQKPGKAPKLLIYSASSLYSGVPSRFSGSRSGTDFTLTISSLQPEDFATYYCQQWGHHGYLITFGQGTKVEIKR | 1200 | 1200 | 
8 | Fab R3C13 (Fab, V domains shown) VH: EVQLVESGGGLVQPGGSLRLSCAASGFNIYYSYMHWVRQAPGKGLEWVASISSYSGSTSYADSVKGRFTISADTSKNTAYLQMNSLRAEDTAVYYCARWLRVSLKSGVYKVLARAVELDEYVMDYWGQGTLVTVSS VL: DIQMTQSPSSLSASVGDRVTITCRASQSVSSAVAWYQQKPGKAPKLLIYSASSLYSGVPSRFSGSRSGTDFTLTISSLQPEDFATYYCQQSGYYAWPITFGQGTKVEIKR | 2000 | 2000 | 
9 | Fab R2C11 (Fab, V domains shown) VH: EVQLVESGGGLVQPGGSLRLSCAASGFNLYYSSIHWVRQAPGKGLEWVAYIYPSYSYTYYADSVKGRFTISADTSKNTAYLQMNSLRAEDTAVYYCARRYGSDVFCVGCFFGVRLSYVMDYWGQGTLVTVSS VL: DIQMTQSPSSLSASVGDRVTITCRASQSVSSAVAWYQQKPGKAPKLLIYSASSLYSGVPSRFSGSRSGTDFTLTISSLQPEDFATYYCQQYVSSGSLITFGQGTKVEIKR | 750 | 600 | 
10 | Fab 2H9 (Fab, V domains shown, not shown: His tag at the C-terminus of the heavy chain) VH: EVQLVESGGGLVQPGGSLRLSCAASGFNIYYSSMHWVRQAPGKGLEWVASIYPYSGYTYYADSVKGRFTISADTSKNTAYLQMNSLRAEDTAVYYCARGTSFQVRCVLYRLLSPGRYVMDYWGQGTLVTVSS VL: DIQMTQSPSSLSASVGDRVTITCRASQSVSSAVAWYQQKPGKAPKLLIYSASSLYSGVPSRFSGSRSGTDFTLTISSLQPEDFATYYCQQSGYSYPFTFGQGTKVEIKR |  |  | 120
11 | Fab 2E4 (Fab, V domains shown, not shown: His tag at the C-terminus of the heavy chain) VH: EVQLVESGGGLVQPGGSLRLSCAASGFNLSYSYIHWVRQAPGKGLEWVAYISSSSGYTYYADSVKGRFTISADTSKNTAYLQMNSLRAEDTAVYYCARSARLRLRGNHDRRRSKSVYYRPYVMDYWGQGTLVTVSS VL: DIQMTQSPSSLSASVGDRVTITCRASQSVSSAVAWYQQKPGKAPKLLIYSASSLYSGVPSRFSGSRSGTDFTLTISSLQPEDFATYYCQQSSPSFPITFGQGTKVEIKR |  |  | 840

Other lines, results leading:

Row | EC50 [1] [nM] | Inhibition potency (FRET IC50) [2] [nM] | EC50 [3] [nM] | Binder
12 | 540 | 75 |  | Fab R2C22 (Fab, V domains shown) VH: EVQLVESGGGLVQPGGSLRLSCAASGFNIYSSYMHWVRQAPGKGLEWVASIYSSYGSTYYADSVKGRFTISADTSKNTAYLQMNSLRAEDTAVYYCARHSRDGWQHWFGNWAGLHSYGMDYWGQGTLVTVSS VL: DIQMTQSPSSLSASVGDRVTITCRASQSVSSAVAWYQQKPGKAPKLLIYSASSLYSGVPSRFSGSRSGTDFTLTISSLQPEDFATYYCQQYYHYGYYLITFGQGTKVEIKR
13 | 57.5 | 170 |  | Fab R3C15 (Fab, V domains shown) VH: EVQLVESGGGLVQPGGSLRLSCAASGFNISYSYMHWVRQAPGKGLEWVASISPYSGYTYYADSVKGRFTISADTSKNTAYLQMNSLRAEDTAVYYCARGVRGNKLRLLSSRSGRMESHYVMDYWGQGTLVTVSS VL: DIQMTQSPSSLSASVGDRVTITCRASQSVSSAVAWYQQKPGKAPKLLIYSASSLYSGVPSRFSGSRSGTDFTLTISSLQPEDFATYYCQQAGSLFTFGQGTKVEIKR
14 | 590 |  | 590 | Fab 3B2 (Fab, V domains shown, also called R2C1; not shown: His tag at the C-terminus of the heavy chain) VH: EVQLVESGGGLVQPGGSLRLSCAASGFNFSSSSIHWVRQAPGKGLEWVASIYSSYSSTYYADSVKGRFTISADTSKNTAYLQMNSLRAEDTAVYYCARSTAATTLSRMSRSYWTIQLPYGMDYWGQGTLVTVSS VL: DIQMTQSPSSLSASVGDRVTITCRASQSVSSAVAWYQQKPGKAPKLLIYSASSLYSGVPSRFSGSRSGTDFTLTISSLQPEDFATYYCQQSSYSLITFGQGTKVEIKR
15 | 29 |  | 29 | Fab 32C11 (Fab, V domains shown, also called R3C7; not shown: His tag at the C-terminus of the heavy chain) VH: EVQLVESGGGLVQPGGSLRLSCAASGFNLYYSSIHWVRQAPGKGLEWVASISSYSSYTYYADSVKGRFTISADTSKNTAYLQMNSLRAEDTAVYYCAREIHMLSRQARYLRDGRRPRGSMYVMDYWGQGTLVTVSS VL: DIQMTQSPSSLSASVGDRVTITCRASQSVSSAVAWYQQKPGKAPKLLIYSASSLYSGVPSRFSGSRSGTDFTLTISSLQPEDFATYYCQQYGAGLITFGQGTKVEIKR
16 | 150 | 150 |  | Fab R2C12 (Fab, V domains shown) VH: EVQLVESGGGLVQPGGSLRLSCAASGFNISSSYMHWVRQAPGKGLEWVASIYSYSSYTYYADSVKGRFTISADTSKNTAYLQMNSLRAEDTAVYYCARSDSWVQGRDFCYYSAWVGYGMDYWGQGTLVTVSS VL: DIQMTQSPSSLSASVGDRVTITCRASQSVSSAVAWYQQKPGKAPKLLIYSASSLYSGVPSRFSGSRSGTDFTLTISSLQPEDFATYYCQQGYYALFTFGQGTKVEIKR
17 | 9.7 |  | 9.7 | Fab 32E10 (Fab, V domains shown, also called R2C19; not shown: His tag at the C-terminus of the heavy chain) VH: EVQLVESGGGLVQPGGSLRLSCAASGFNIYSYSMHWVRQAPGKGLEWVAYIYPYSGYTYYADSVKGRFTISADTSKNTAYLQMNSLRAEDTAVYYCARLDRDRYIHVGRAGNTYSNYYYVMDYWGQGTLVTVSS VL: DIQMTQSPSSLSASVGDRVTITCRASQSVSSAVAWYQQKPGKAPKLLIYSASSLYSGVPSRFSGSRSGTDFTLTISSLQPEDFATYYCQQPWGAASLITFGQGTKVEIKR
18 | 657 | 80 |  | Fab R2C9 (Fab, V domains shown) VH: EVQLVESGGGLVQPGGSLRLSCAASGFNIYSYSMHWVRQAPGKGLEWVAYIYPYSGYTYYADSVKGRFTISADTSKNTAYLQMNSLRAEDTAVYYCARVLNIFMDVGAARFPGLVRYGMDYWGQGTLVTVSS VL: DIQMTQSPSSLSASVGDRVTITCRAGQDVSSAVAWYQQKPGKAPKLLIYSASTLHSGVPSRFSGSRSGTDFTLTISSLQPEDFATYYCQQSGPYSLFTFGQGTKVEIKR
